Data on one molecule can be found in US20080085863A1 (WISCONSIN ALUMNI RESEARCH FOUNDATION, published 2008).

Assay [1] addresses T1, Flag-tagged recombinant bone morphogenetic protein-1 (BMP-1) (UniProt P13497-2 121-730, limits assumed).
T1 construct: Prepared as in Scott et al. 1999 (cited); In the Ki and complex-formation experiments it was metabolically labelled with 35S and purified on an anti-FLAG M2 column; also called 35S-radiolabeled BMP-1; recombinant BMP-1; not shown: Flag tag
T1 sequence (looked up): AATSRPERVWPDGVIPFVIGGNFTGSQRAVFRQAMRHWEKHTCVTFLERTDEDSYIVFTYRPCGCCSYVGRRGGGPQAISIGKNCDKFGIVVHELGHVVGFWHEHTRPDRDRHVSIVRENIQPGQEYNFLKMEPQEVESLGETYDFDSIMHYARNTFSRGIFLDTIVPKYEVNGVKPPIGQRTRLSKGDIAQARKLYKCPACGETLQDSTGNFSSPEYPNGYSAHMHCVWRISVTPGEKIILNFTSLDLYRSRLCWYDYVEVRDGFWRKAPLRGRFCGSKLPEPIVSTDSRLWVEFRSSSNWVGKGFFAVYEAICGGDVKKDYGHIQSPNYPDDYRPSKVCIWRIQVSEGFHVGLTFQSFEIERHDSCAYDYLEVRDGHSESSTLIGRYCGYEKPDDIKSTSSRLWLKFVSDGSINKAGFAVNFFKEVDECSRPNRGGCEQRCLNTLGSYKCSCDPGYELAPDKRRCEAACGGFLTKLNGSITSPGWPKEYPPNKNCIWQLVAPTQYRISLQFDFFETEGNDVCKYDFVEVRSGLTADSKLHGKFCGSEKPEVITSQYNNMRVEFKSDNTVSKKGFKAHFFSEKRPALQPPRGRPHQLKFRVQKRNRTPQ
Nature of the assay: ratio of second order rate constants, 35S-BMP-1 complex formation. Here is the method:
(§1) 40 nM ³⁵S-labeled BMP-1 was incubated with 20, 40, 80, 160, and 240 nM plasma α₂M, or recombinant wild type α₂M or with 5, 10, 20, 40, and 80 nM b-α₂M at 37° C. in 50 mM Tris-HCl, pH 7.5, 100 mM NaCl and 10 mM CaCl₂. Reactions were stopped at 10, 30, 60, 90 and 120 minutes (plasma α₂M and recombinant wild type α₂M), or at 2, 5, 10, 20 and 30 minutes (b-α₂M) by adding. SDS-PAGE sample buffer and boiling 5 minutes at 95° C. Protein samples were separated on 7.5% acrylamide SDS-PAGE gels, which were then treated with EN³HANCE (DuPont) and exposed to film. Percentages of BMP-1 incorporated into high molecular weight complexes were determined by densitometry and kinetic parameters were determined essentially via the method of Enghild J, et al, “Interaction of human rheumatoid synovial collagenase (matrix metalloproteinase 1) and stromelysin (matrix metalloproteinase 3) with human alpha 2-macroglobulin and chicken ovostatin. Binding kinetics and identification of matrix metalloproteinase cleavage sites,” J. Biol. Chem. 264:8779-8785 (1989).
(§2) To obtain a quantitative comparison of the rates of interaction of BMP-1 with the various wild type and mutant forms of α₂M, we employed the methodology of Enghild et al., supra, which involves quantification of covalent proteinase-α₂M complex formation, subsequent to incubation of radiolabeled proteinase with α₂M.

For assay [2], the target named is T1, Flag-tagged recombinant bone …. Nature of the assay: time course of covalent complex formation of 40 nM 35S-BMP-1 with increasing b-α2M, SDS-PAGE densitometry (method of Enghild et al.). The procedure:
as §1, §2

Assay [3] shares this target. Nature of the assay: cell-based or functional assay.

B1: recombinant mutant α2-macroglobulin with the native bait region replaced by sequences flanking the human probiglycan BMP-1 cleavage site (b-α2M) (other)
chain: DYKDDDDKSVSGKPQYMVLVPSLLHTETTEKGCVLLSYLNETVTVSASLESVRGNRSLFTDLEAENDVLHCVAFAVPKSSSNEEVMFLTVQVKGPTQEFKKRTTVMVKNEDSLVFVQTDKSIYKPGQTVKFRVVSMDENFHPLNELIPLVYIQDPKGNRIAQWQSFQLEGGLKQFSFPLSSEPFQGSYKVVVQKKSGGRTEHPFTVEEFVLPKFEVQVTVPKIITILEEEMNVSVCGLYTYGKPVPGHVTVSICRKYSDASDCHGEDSQAFCEKFSGQLNSHGCFYQQVKTKVFQLKRKEYEMKLHTEAQIQEEGTVVELTGRQSSEITRTITKLSFVKVDSHFRQGIPFFGQVRLVDGKGVPIPNKVIFIRGNEANYYSNATTDEHGLVQFSINTTNVMGTSLTVRVNYKDRSPCYGYQWVSEEHEEAHHTAYLVFSPSKSFVHLEPMSHELPCGHTQTVQAHYILNGGTLLGLKKLSFYYLIMAKGGIVRTGTHGLLVKQEDMKGHFSISIPVKSDIAPVARLLIYAVLPTGDVIGDSAKYDVENCLANKVDLSFSPSQSLPASHAHLRVTAAPQSVCALRAVDQSVLLMKPDAELSASSVYNLLPEKDLTGFPGPLNDQDDEDCINRHNVYINGITYTPVSSTNEKDMYSFLEDMGLKAFTNSKIRKPKMCPQFWDFTLDDGPFMMNDEEASGADTSGVLDPDSVTPTYSAMVRKYFPETWIWDLVVVNSAGVAEVGVTVPDTITEWKAGAFCLSEDAGLGISSTASLRAFQPFFVELTMPYSVIRGEAFTLKATVLNYLPKCIRVSVQLEASPAFLAVPVEKEQAPHCICANGRQTVSWAVTPKSLGNVNFTVSAEALESQELCGTEVPSVPEHGRKDTVIKPLLVEPEGLEKETTFNSLLCPSGGEVSEELSLKLPPNVVEESARASVSVLGDILGSAMQNTQNLLQMPYGCGEQNMVLFAPNIYVLDYLNETQQLTPEIKSKAIGYLNTGYQRQLNYKHYDGSYSTFGERYGRNQGNTWLTAFVLKTFAQARAYIFIDEAHITQALIWLSQRQKDNGCFRSSGSLLNNAIKGGVEDEVTLSAYITIALLEIPLTVTHPVVRNALFCLESAWKTAQEGDHGSHVYTKALLAYAFALAGNQDKRKEVLKSLNEEAVKKDNSVHWERPQKPKAPVGHFYEPQAPSAEVEMTSYVLLAYLTAQPAPTSEDLTSATNIVKWITKQQNAQGGFSSTQDTVVALHALSKYGAATFTRTGKAAQVTIQSSGTFSSKFQVDNNNRLLLQQVSLPELPGEYSMKVTGEGCVYLQTSLKYNILPEKEEFPFALGVQTLPQTCDEPKAHTSFQISLSVSYTGSRSASNMAIVDVKMVSGFIPLKPTVKMLERSNHVSRTEVSSNHVLIYLDKVSNQTLSLFFTVLQDVPVRDLKPAIVKVYDYYETDEFAIAEYNAPCSKDLGNA
modifications: One subunit is given; cross-linking showed that the protein forms tetramers. The internal thioester and glycosylation are not carried by the letters.
notes: also called recombinant b-α2M; modified α2M
Regarding B1, in assay [1], the “Relative effectiveness (against recombinant α2M = 1)” value is 23.7 fold and the “fold more effective in interacting with BMP-1 than wild type α2M from plasma (second order rate constants)” value came out at 15.7 fold. Also, the Ki in assay [2] came to 36.4 nM. For the same molecule, in assay [3], the “pCP inhibitory activity, IC50” value is 1.88 nM and the “α2M inhibition of BMP-1 (fold enhancement over the native bait region)” value was about 25 fold.
